{"source": "patent WO2022250107A1", "about": "(dated 2022)", "binders": {"B1": {"name": "EV053273 (antibody, V domains shown)", "VH": "QVQLVQSGAEVKEPGTSVKVSCKASGYIFTGYYIHWVRQAPGQGLEWMGWINPNSGGRNYTQKFQGRVTMTRDKSISTVYMELSGLRSDDTAIYYCARDNSWSTVQFCLDYWGQGTLVTVSS", "VL": "QSALTQPPSASGSPGQSVTISCTGTSSDVGSYNYVSWYQQYPGKAPKLMIYEVSKRPSGVPDRFSGSKSGNTASLTVSGLQAEDEADYYCSSYGGSNNLVFGGGTKLTVLG"}}, "molecular_target": "S protein of SARS-CoV-2 wild strain JPN/TY/WK-521 (on infectious virus) (SARS-CoV-2, UniProt P0DTC2 14-1273)", "assay": "cell-based or functional assay", "data": [{"binder": "B1", "values": [{"measurement": "中和活性 IC50 (inhibition of infection of VeroE6/TMPRSS2 cells)", "value": "≤ 10", "unit": "ng/mL"}]}]}
